In paper PMC4176340, “Structure and function of TatD exonuclease in DNA repair”:

Biological target: T1, TatD (Escherichia coli K12, UniProt P27859 1-260)
T1 sequence: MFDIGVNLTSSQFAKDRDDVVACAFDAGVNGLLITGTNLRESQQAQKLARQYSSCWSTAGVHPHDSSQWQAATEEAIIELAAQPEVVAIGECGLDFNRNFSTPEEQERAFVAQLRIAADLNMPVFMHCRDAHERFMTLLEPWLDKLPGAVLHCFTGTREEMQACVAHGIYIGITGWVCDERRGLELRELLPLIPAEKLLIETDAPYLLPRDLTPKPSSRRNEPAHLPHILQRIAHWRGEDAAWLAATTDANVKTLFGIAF
Test: X-ray crystallography 2.9 A; no metal ion identified; only trinucleotide GCT seen, weak density, occupancy 0.7, inactive conformation, likely cleaved product; Co-crystals: TatD 7-8 mg/ml in 10 mM MOPS, 250 mM NaCl, DNA at 1:1.2 (TatD:DNA); reservoir 4% Tacsmate pH 4, 12% PEG 3350; temperature not stated. Nuclease assays (turnover only) not listed
Settings: protein: recombinant; tags: C-terminal His-tag (pET22b); single strand; only 5'-GCT-3' modelled (digestion product or ordered 3' end)

GCTTAGCT (ssDNA) [8-nt ssDNA used for co-crystallization]: binds.
